Results taken from patent US20110171259A1 (priority 2008, published 2011).
“Also recorded” adds a separate entry of the source. Ends that are not written are not given here.

Assays:
[1] = tested on: SFV (A/New Calcdonia/20/99); assay: Influenza-specific serum IgG ELISA after nasal instillation of SFV with Lip peptide MC58; assay type: in vivo, C57BL/6 mice; conditions: 3 μg SFV + 10 μg peptide nasally Day 0 and Day 14, sera Day 28, versus SFV alone; FIG. 6
Procedure: On day 28, mice were euthanized and exsanguinated by cardiac puncture. Influenza-specific IgG levels were measured in sera collected at Day 28 by ELISA using (A/New Calcdonia/20/99) SFV as solid-phase antigen.

[2] = molecular target: human TLR 1 and 2 (Homo sapiens, UniProt O60603+Q15399); assay: NF-κB SEAP reporter assay in HEK293 cells expressing TLR 1 and 2; conditions: TLR1/2-expressing HEK293 cells; 0, 0.01, 0.1, 1.0 μg; 5 hours exposure; FIG. 3; listed as Lip peptide lipidated MC58
Sequence of human TLR 1 and 2 (O60603 21-784): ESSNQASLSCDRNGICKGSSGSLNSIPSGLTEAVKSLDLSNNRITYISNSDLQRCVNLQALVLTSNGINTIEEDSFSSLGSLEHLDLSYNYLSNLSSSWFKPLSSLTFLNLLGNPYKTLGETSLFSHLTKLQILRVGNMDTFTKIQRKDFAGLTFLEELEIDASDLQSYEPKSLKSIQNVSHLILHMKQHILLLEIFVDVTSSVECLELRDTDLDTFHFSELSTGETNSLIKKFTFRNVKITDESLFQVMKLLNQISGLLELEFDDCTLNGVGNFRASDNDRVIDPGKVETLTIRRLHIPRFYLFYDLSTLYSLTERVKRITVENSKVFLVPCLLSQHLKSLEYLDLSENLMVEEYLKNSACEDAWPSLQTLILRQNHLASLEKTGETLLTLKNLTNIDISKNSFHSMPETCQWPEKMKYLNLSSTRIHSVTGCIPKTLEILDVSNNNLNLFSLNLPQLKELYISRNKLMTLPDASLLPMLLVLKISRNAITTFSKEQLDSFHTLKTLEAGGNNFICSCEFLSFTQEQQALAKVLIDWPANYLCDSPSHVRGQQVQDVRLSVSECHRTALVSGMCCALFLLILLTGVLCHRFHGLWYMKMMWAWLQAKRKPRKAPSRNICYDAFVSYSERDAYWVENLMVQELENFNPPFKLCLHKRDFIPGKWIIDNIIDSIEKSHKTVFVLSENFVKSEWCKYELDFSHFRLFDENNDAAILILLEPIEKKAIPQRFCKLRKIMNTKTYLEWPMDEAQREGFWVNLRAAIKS
Sequence of human TLR 1 and 2 (Q15399 25-786): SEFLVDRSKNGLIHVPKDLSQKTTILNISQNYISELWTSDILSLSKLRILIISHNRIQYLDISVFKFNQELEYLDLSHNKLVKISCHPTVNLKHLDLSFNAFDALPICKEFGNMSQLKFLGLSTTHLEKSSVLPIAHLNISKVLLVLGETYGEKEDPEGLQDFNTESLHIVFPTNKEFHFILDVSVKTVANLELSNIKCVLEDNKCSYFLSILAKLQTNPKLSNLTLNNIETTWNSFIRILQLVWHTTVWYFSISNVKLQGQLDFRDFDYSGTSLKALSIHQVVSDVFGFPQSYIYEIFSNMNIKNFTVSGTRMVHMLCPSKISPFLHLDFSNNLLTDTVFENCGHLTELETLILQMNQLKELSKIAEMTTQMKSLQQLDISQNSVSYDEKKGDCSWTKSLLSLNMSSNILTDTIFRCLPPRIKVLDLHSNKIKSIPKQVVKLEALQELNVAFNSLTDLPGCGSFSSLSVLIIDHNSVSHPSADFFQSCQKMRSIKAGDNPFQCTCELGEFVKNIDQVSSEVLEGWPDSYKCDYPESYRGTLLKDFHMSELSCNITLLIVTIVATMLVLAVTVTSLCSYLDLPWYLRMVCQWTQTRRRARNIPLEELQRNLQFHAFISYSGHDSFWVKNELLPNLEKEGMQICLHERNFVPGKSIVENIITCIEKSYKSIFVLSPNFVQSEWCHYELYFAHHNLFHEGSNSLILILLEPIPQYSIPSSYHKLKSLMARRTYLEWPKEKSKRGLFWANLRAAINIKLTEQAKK

[3] = molecular target: T1, Toll-Like Receptor 2 (Homo sapiens, UniProt O60603+Q15399); conditions: Fisette et al., 2003; cited from earlier work
T1 construct: host or cells: epithelial cells
T1 sequence (O60603 21-784, species assumed): as the sequence (O60603 21-784) above
T1 sequence (Q15399 25-786, species assumed): as the sequence (Q15399 25-786) above

[4] = tested on: split-flu vaccine (SFV); assay type: in vivo, C57BL/6 mice; conditions: 3 μg SFV + 0.35 μg or 1.0 μg Lip protein nasally Day 0 and Day 14, Day 28 sera, versus SFV alone; batch 1 and batch 2; FIG. 7 and 8
[5] = molecular target: TLR4/MD2/CD14 (Homo sapiens, UniProt O00206); assay: NF-κB SEAP reporter assay in HEK293 cells expressing TLR4/MD2/CD14; conditions: FIG. 5
Sequence of TLR4/MD2/CD14 (O00206 24-839): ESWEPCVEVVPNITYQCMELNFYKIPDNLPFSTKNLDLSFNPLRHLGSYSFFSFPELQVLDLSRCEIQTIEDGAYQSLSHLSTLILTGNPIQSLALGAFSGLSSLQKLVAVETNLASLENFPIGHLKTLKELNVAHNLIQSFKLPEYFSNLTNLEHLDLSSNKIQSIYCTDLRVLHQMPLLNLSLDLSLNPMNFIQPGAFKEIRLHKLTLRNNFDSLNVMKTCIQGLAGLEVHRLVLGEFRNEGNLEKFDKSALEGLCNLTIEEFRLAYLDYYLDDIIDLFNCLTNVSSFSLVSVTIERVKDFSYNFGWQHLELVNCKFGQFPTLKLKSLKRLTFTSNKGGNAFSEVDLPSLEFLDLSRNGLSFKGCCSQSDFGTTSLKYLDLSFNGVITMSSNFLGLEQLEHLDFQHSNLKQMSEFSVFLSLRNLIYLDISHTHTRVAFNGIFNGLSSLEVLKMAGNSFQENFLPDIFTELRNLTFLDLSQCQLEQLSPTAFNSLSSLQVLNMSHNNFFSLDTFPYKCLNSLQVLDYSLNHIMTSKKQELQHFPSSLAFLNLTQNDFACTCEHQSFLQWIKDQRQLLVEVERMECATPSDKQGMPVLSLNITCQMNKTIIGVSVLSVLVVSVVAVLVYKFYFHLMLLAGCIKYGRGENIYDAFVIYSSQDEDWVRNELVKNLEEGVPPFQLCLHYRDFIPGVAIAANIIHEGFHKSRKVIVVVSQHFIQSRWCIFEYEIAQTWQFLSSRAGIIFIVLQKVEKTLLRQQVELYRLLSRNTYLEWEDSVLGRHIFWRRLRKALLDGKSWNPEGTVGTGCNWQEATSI
Sequence of TLR4/MD2/CD14 (Q9Y6Y9 19-160 partner): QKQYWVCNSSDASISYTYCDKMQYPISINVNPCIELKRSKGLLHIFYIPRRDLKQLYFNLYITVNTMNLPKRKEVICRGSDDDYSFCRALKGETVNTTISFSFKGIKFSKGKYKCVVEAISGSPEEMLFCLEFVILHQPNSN

Molecule: Pam3Cys-GGEKAAEAPAAEAP [Lip peptide MC58]
- serum influenza-specific IgG levels [1]: statistically significant higher levels
- NF-κB activation (relative 650 nm optic density, SEAP) [2]: mainly TLR1 and 2 agonists

Molecule: Pam3Cys-GGEKAAEAPAAEAS [Lip peptide F62, triacylated Lip peptide from N. gonorrhoeae F62]
- production of inflammatory cytokines [3]: can stimulate

B1: Lip protein: Lip protein purified from Neisseria meningitidis (strain 8047) Proteosome preparation (protein)
chain: MKAYLALISAAVIGLAACSQEPAAPAAEATPAAEAPASEAPAAEAAPADAAEAPAAGNCAATVESNDNMQFNTKDIQVSKACKEFTITLKHTGTQPKTSMGHNIVIGKTEDMDGIFKDGVGAADTDYVKPDDARVVAHTKLIGGGEESSLTLDPAKLADGDYKFACTFPGHGALMNGKITLVD
modifications: N.meningitidis
notes: Lip protein purified from Neisseria meningitidis (strain 8047) Proteosome preparation
- antigen-specific IgG levels in sera [4]: statistically significant (p<0.001 and p<0.01) higher levels; also recorded: significantly higher than the SFV alone
- NF-κB activation [5]: no significant increase
